Results on one substance are retold here after article PMC11437077.

The assay addresses mouse PD-1 wild type expressed on CHO cells (mouse) (UniProt Q02242). As to the kind of experiment: biomembrane force probe (BFP), force-ramp spectroscopy (rupture force); PD-L1- or PD-L2-coated glass bead on a micropipette-aspirated RBC against a CHO cell expressing PD-1; continuous retraction until bond rupture; nominal loading rate 1000 pN/s; BFP spring constant 0.3 pN/nm.

Chain of mouse PD-L2 with C-terminal biotin (Q9WUL5 20-221): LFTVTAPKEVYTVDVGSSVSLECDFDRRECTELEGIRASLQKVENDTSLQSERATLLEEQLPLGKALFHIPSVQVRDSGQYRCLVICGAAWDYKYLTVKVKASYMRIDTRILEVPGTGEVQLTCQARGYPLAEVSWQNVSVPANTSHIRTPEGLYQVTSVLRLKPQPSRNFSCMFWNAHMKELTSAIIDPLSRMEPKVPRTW
Chain of mouse PD-1 wild type expressed on CHO cells (mouse) (Q02242 25-288): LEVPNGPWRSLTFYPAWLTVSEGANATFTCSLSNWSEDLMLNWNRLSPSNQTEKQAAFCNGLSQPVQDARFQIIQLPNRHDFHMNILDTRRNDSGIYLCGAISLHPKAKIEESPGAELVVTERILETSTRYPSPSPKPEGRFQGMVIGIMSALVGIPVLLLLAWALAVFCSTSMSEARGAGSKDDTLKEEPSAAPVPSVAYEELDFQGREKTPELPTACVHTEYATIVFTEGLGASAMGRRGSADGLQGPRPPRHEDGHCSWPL

Substance “mouse PD-L2 with C-terminal biotin (from UniProt Q9WUL5 20-221) (ligand)” had an F1/2 (force at which 50% of the bonds rupture) of 12.1 pN.
